Source: US8241627B2, “Modified polypeptides stabilized in a desired conformation and methods for producing same” (The Center for Blood Research, Inc., priority 2000, dated 2012)

What was measured:
ICAM-3 = target: T1, ICAM-3 (Homo sapiens, UniProt P32942); experiment: BIAcore binding of soluble αL I-domains to ICAM-3; conditions: 1:1 interaction model
T1 sequence (P32942 30-485 limits assumed): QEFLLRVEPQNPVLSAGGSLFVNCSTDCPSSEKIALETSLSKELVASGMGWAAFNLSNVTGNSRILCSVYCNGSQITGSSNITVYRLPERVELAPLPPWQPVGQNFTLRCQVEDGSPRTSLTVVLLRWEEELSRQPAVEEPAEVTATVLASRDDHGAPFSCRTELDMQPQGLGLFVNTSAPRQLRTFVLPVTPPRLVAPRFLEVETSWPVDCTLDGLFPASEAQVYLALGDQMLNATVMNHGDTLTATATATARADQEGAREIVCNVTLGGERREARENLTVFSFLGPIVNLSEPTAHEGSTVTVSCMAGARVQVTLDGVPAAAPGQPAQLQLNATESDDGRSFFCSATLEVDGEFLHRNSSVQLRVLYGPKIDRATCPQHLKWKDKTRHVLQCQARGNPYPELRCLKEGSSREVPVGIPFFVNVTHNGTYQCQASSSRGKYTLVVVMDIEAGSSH
Protocol: Briefly, recombinant mutant αL I-domain stabilized in the open conformation (K287C/K294C), or recombinant wild-type αL I-domain from amino acid residue G128 to Y307, were cloned into pET11b (Novagen) and expressed in E. coli induced with 1 mM IPTG for 4 hours. The recombinant proteins were purified from inclusion bodies by solubilization of inclusion bodies in 6M guanidine HCl and were refolded by dilution in the presence of 0.1 mM Cu^2+/phenanthrolin to enhance formation of disulfide bonds. Protein was concentrated by ammonium sulfate precipitation, dialyzed, and purified over a monoQ ion-exchange column. […] The recombinant proteins were then purified by gel filtration and concentrated by Centriprep. For BIAcore™ analysis, recombinant ICAM-1, ICAM-2 and ICAM-3 Fc chimeras were immobilized on the BIAcore™ sensor chip by an amine-coupling method. Recombinant αL I-domains were flowed in, and BIAcore™ assays were performed with Tris-buffered saline supplemented with 1 mM MgCl2 or 2 mM EDTA, at a flow rate of 10 μl/minute at 25° C.

ICAM-1 = ICAM-1 (Homo sapiens, UniProt P05362); experiment: Binding of LFA-1 or isolated I-domain transfectants to immobilized ICAM-1; format: cell-based; parameters: ICAM-1 was purified from human tonsil; from tissue; host or cells: human tonsil
ICAM-1, sequence (P05362 28-532): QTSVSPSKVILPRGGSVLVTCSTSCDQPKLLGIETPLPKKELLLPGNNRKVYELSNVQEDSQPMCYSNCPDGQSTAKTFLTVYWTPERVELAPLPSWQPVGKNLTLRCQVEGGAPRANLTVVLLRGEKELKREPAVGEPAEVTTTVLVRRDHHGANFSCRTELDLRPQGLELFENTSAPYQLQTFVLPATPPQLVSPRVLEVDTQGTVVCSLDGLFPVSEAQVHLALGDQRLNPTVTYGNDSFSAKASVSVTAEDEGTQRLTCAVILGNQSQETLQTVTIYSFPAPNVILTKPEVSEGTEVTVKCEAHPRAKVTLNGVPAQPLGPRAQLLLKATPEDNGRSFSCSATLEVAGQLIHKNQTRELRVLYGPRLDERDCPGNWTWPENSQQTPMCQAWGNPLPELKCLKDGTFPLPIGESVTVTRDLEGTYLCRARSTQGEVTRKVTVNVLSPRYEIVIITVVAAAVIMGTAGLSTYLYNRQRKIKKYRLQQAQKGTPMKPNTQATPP
Protocol: Clones of the transfectants that expressed similar levels of cell surface LFA-1, as determined by flow cytometry using monoclonal antibody TS2/4 (FIG. 3B), were tested for their ability to bind to immobilized ICAM-1, as previously described (Lu, C and Springer, T A (1997) J Immunol 159:268-278).
Briefly, ICAM-1 was purified from human tonsil, and coated to 96-well plates as described previously (Lu, C and Springer T A, (1997) J Immunol 159:268-278). Cells were labeled with a florescence dye 2′,7′-bis-(carboxyethyl)-5(and-6)-carboxyfluorescein, acetoxymethyl ester (BCECF-AM), and resuspended to 1×10^6/ml in L15/FBS. 50 μl cell suspension was mixed in ICAM-1 coated wells with an equal volume of L15/FBS in the absence or presence of monoclonal antibody (CBRLFA-1/2, 10 μg/ml). Monoclonal antibodies were used at final concentration of 1:20 hybridoma supernatant, 1:200 ascites, or μg/ml purified IgG. For testing the effect of divalent cations, BCECF-AM-labeled cells were washed 2× with TS buffer, pH7.5 (20 mM Tris, pH 7.5, 150 mMNaCl) containing 5 mM EDTA, followed by 2 washes with TS buffer, pH7.5. Cells were then resuspended to 5×10^5/ml in the TS buffer, pH7.5 supplemented with 1 mM MgCl2/CaCl2, MgCl2, MnCl2 mM EDTA, and 100 μl cell suspension was added to ICAM-1 coated wells. After incubation at 37° C. for 30 minutes, unbound cells were washed off on a Microplate Autowasher (Bio-Tek Instruments, Winooski, Vt.). The fluorescence content of total input cells and the bound cells in each well was quantitated on a Fluorescent Concentration Analyzer (IDEXX, Westbrook, Me.). The bound cells were expressed as a percentage of total input cells per sample well.
For generating stable K562 transfectants that express the I-domain on the surface, 20 μg of SspI-linearized pcDNA3.1/Hygro(+) containing the sequences encoding the I domain and the PDGFR transmembrane domain was used to transfect K562 cells by electroporation as described above. Transfectants were selected for resistance to 100 μg/ml hygromycin B, and were further subcloned by cell sorting and limiting dilution; clones that expressed similar levels of surface wild-type and mutant I domain-PDGFR were selected for functional studies. Stable cell lines were maintained in RPMI medium 1640 supplemented with 10% FBS and 100 μg/ml hygromycin B. Cell surface expression of the isolated I-domains was determined by flow cytometry using antibody TS1/22 to the I-domain (FIG. 7). Two clones from each transfectant were selected and tested for binding to immobilized ICAM-1, and similar results were obtained with each of the two clones (FIG. 8A).
If the constitutive ligand binding activity of mutant K287C/K294C is due to the formation of a disulfide bond between the introduced C287 and C294, disruption of the disulfide bond with a reducing agent would abolish ligand binding ability of the mutant. Accordingly, the transfectants were treated with the reducing agent DTT (10 mM) in L15/FBS containing Mg^2+ and Ca^2+, and the ability of transfectants to bind to ICAM-1 was assessed.
Furthermore, the effect of divalent cations on ligand binding of the isolated I-domains expressed on the surface of K562 transfectants was tested. The binding reactions were performed in HEPES/NaCl/glucose (20 mM HEPES, pH 7.5, 140 mM NaCl, 2 mg/ml glucose) supplemented with 1 mM […], 1 mM Mg^2+, or 1 mM EDTA.

B1: K287C/K294C: human αL (LFA-1) I-domain with K287 and K294 replaced by cysteines; high affinity locked open; tested in intact LFA-1, cell-surface and soluble forms (protein)
chain: GNVDLVFLFDGSMSLQPDEFQKILDFMKDVMKKLSNTSYQFAAVQFSTSYKTEFDFSDYVKRKDPDALLKHVKHMLLLTNTFGAINYVATEVFREELGARPDATKVLIIITDGEATDSGNIDAAKDIIRYIIGIGKHFQTKESQETLHKFASKPASEFVCILDTFECLKDLFTELQKKIY
notes: human αL (LFA-1) I-domain with K287 and K294 replaced by cysteines; tested in intact LFA-1, cell-surface and soluble forms
In the case of B1, the “Koff, open I-domain binding to ICAM-3” value (ICAM-3) is reported as 0.0749 s⁻¹, the “Kon, open I-domain binding to ICAM-3” value (ICAM-3) is reported as 19000 M⁻¹ s⁻¹ and the “binding of 293T transient transfectants to immobilized ICAM-1” value (ICAM-1; 293T, no activating antibody) is reported as “constitutively strong binding”. The “binding of K562 cells expressing isolated I-domains to immobilized ICAM-1” value (ICAM-1; I-domain on cell surface via PDGFR transmembrane domain) was “strong binding”, the “binding of isolated I-domain to ICAM-1 after EDTA treatment” value (ICAM-1; K562, 1 mM EDTA) was “abolished” and the “binding of K562 stable transfectants to immobilized ICAM-1 with activating mAb CBRLFA-1/2” value (ICAM-1; K562, CBRLFA-1/2 10 μg/ml) was “did not further enhance binding”. The “binding of K562 transfectants to ICAM-1 in the presence of EDTA” value (ICAM-1; K562, intact LFA-1, EDTA) was “abolished”, the “binding of K562 stable transfectants to immobilized ICAM-1” value (ICAM-1; K562, no activating antibody) was “strongly bound” and the “effect of DTT treatment on binding to ICAM-1” value (ICAM-1; K562 transfectants, DTT 10 mM in L15/FBS) was “abolished”.
